Consider four substances from article PMC5639704.

One may read the Kd as the concentration at which binding is half-saturated. High values mean weaker binding, low ones tighter binding.

The experiment has as its target Human TRF2^TRFH (residues 42-245) (human). The experiment in a line: ITC.
“WT hNBS1 peptide (423–438) (from UniProt O60934 423-438)” returned a Kd of 17 µM. Next, mNBS1^S433A peptide: 21.7 µM; “hNBS1^S432A peptide (423–438) (from UniProt O60934 423-438)”: 16 µM; WT mNBS1 peptide: 19.8 µM.
